Blank lines part the entries; values can stand above or below the substance they belong to.
Tests used:
[1] = target: CBKP2, PaKEOPS complex with PaPcc2 in place of PaPcc1 (PaCgi121/PaBud32/PaKae1/PaPcc2) (Pyrococcus abyssi) (UniProt Q9UXT7); assay: SEC-SAXS; purified complexes loaded at 2.55 (CBKP1P2), 0.72 (CBKP1) and 3 mg/ml (CBKP2) on a Bio-SEC3 column; 20 mM Tris pH 8.5, 300 mM NaCl, 5 mM 2-mercaptoethanol, 5% glycerol
[2] = target: PaCgi121;PaBud32;PaKae1;PaPcc1-His6;PaPcc2-Strep (Pyrococcus abyssi;Pyrococcus abyssi;Pyrococcus abyssi;Pyrococcus abyssi;Pyrococcus abyssi) (UniProt Q9UZ62+Q9UYB9+Q9UXT7+Q9V1Z9+A0A915Q984); assay: fluorescence anisotropy; settings: CBKP1P2 complex; 3 mM Mg2+; n=3; 20 mM Tris-HCl pH 8, 150 mM KCl, 3 mM MgCl2, 1% glycerol, 1 nM labelled tRNA (10 nM in Suppl. Fig. 7C), 20 °C, 15 min
[3] = target: PaCgi121;PaBud32;PaKae1;PaPcc2-His6 (Pyrococcus abyssi;Pyrococcus abyssi;Pyrococcus abyssi;Pyrococcus abyssi) (UniProt Q9UZ62+Q9UYB9+Q9UXT7+A0A915Q983); assay: fluorescence anisotropy; settings: CBKP2 complex; 3 mM Mg2+; 10 nM tRNA (Suppl. Fig. 7C); 20 mM Tris-HCl pH 8, 150 mM KCl, 3 mM MgCl2, 1% glycerol, 1 nM labelled tRNA (10 nM in Suppl. Fig. 7C), 20 °C, 15 min
Chain of PaCgi121;PaBud32;PaKae1;PaPcc2-His6 (Pyrococcus abyssi;Pyrococcus abyssi;Pyrococcus abyssi;Pyrococcus abyssi) (Q9UZ62 whole entry, chain 1 of 4): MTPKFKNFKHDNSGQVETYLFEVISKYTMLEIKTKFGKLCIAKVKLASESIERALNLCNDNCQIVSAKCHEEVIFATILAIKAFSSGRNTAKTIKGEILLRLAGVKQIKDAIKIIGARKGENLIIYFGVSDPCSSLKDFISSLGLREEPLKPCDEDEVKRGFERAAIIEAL
Chain of PaCgi121;PaBud32;PaKae1;PaPcc2-His6 (Pyrococcus abyssi;Pyrococcus abyssi;Pyrococcus abyssi;Pyrococcus abyssi) (Q9UYB9 whole entry, chain 2 of 4): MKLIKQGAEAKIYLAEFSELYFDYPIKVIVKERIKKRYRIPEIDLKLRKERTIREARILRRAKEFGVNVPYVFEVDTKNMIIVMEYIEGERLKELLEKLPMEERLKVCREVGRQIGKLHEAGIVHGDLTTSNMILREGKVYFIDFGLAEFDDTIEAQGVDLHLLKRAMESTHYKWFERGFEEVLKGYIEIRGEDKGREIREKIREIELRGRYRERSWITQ
Chain of PaCgi121;PaBud32;PaKae1;PaPcc2-His6 (Pyrococcus abyssi;Pyrococcus abyssi;Pyrococcus abyssi;Pyrococcus abyssi) (Q9UXT7 whole entry, chain 3 of 4): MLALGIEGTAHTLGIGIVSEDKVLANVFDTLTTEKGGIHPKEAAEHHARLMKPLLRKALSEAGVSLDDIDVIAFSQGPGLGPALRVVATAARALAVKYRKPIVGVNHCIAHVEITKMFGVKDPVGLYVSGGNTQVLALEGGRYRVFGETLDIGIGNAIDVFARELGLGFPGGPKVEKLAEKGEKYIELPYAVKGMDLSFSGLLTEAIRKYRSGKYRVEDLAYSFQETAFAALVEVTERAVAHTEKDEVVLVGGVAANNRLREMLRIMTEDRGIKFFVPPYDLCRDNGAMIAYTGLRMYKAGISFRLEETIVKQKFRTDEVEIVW
Chain of PaCgi121;PaBud32;PaKae1;PaPcc2-His6 (Pyrococcus abyssi;Pyrococcus abyssi;Pyrococcus abyssi;Pyrococcus abyssi) (chain, as listed by the source, chain 4 of 4): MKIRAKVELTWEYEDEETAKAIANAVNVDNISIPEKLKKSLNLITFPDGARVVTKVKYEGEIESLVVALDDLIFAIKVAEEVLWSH

[4] = target: PaPcc2 with C-terminal hexa-histidine tag (Pyrococcus abyssi Pcc2) (Pyrococcus abyssi); assay: SEC; Ni-NTA eluate on HiLoad 16/600 Superdex 200 pg or Superdex 75 pg; 20 mM Tris-HCl pH 8, 500 mM KCl, 10% glycerol, 5 mM ß-mercaptoethanol

Substance: CBKP2, PaKEOPS complex with PaPcc2 in place of PaPcc1 (PaCgi121/PaBud32/PaKae1/PaPcc2) (from UniProt Q9UXT7 1-324)
stoichiometry N [1]: 2

Substance: GGGCCGGUAGCUCAGCCUGGUCAGAGCACCGGGCUUUUAACCCGGUGGUCGCGGGUUCAAAUCCCGCCCGGCCCGCCA [Pa_tRNALys (UUU)]
Kd [2]: 100 nM
Kd [3]: 1800 nM

stoichiometry N [4]: 2
Substance: PaPcc2 with C-terminal hexa-histidine tag (Pyrococcus abyssi Pcc2) (natural protein)
